Data taken from patent US20140011747A1 (WISCONSIN ALUMNI RESEARCH FOUNDATION, published 2014).
Ends that are not written are not given here.

Assays:
[1] = target: T1, epidermal growth factor receptor (EGFR), endogenous in human cell lines (human, UniProt P00533 25-1210); test: cell-based or functional assay
[2] = target: T1, epidermal growth factor receptor …; test: co-immunoprecipitation of mouse syndecan chimeras from HaCat cells, western blot
[3] = target: T2, β4^R1733A mutant of the β4 cytoplasmic domain (binding construct) (human, UniProt P16144-2 1677-1752); test: binding of β4 cytoplasmic domain mutants to syndecan
T2 construct: not shown: 6×His tag and leader of the pTRC-His A vector
T2 sequence (looked up): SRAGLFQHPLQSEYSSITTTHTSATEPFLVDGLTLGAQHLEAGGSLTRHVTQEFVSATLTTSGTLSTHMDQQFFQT

[4] = target: T1, epidermal growth factor receptor …; test: co-immunoprecipitation from lysates of MCF10A and BT474 cells, western blot

B1: SSTNEGFR synthetic peptide truncated of amino acids 126-131 (peptide)
peptide: NHIPERAGSGSQVPTEPKKLEENEVIPKRISPVEESEDV
In the case of B1, the “activity against EGF-stimulated cell migration, relative to SSTNEGFR” value [1] is reported as no less than 100 fold reduction.

B2: SSTNEGFR, synthetic peptide of amino acids 87-131 of the human Sdc4 ectodomain (peptide)
peptide: NHIPERAGSGSQVPTEPKKLEENEVIPKRISPVEESEDVSNKVSM
With B2 the “IC50, EGF-stimulated migration of MCF10A cells, scratch wound closure” value [1] was 100 to 300 nM.

B3: GST-S4ED, recombinant Sdc4 ectodomain fused to GST (other, UniProt P31431 19-145, looked up, not shown: a dimerising Fc or GST)
chain: ESIRETEVIDPQDLLEGRYFSGALPDDEDVVGPGQESDDFELSGSGDLDDLEDSMIGPEVVHPLVPLDNHIPERAGSGSQVPTEPKKLEENEVIPKRISPVEESEDVSNKVSMSSTVQGSNIFERTE
For B3, the “IC50, EGF-stimulated chemotaxis of MCF10A cells or HaCat keratinocytes” value [1] was 100 to 300 nM.

B4: mouse syndecan chimera: mSdc4 with its ectodomain swapped for that of Sdc1 (receptor, UniProt P18828 23-255, looked up)
chain: QIVAVNVPPEDQDGSGDDSDNFSGSGTGALPDTLSRQTPSTWKDVWLLTATPTAPEPTSSNTETAFTSVLPAGEKPEEGEPVLHVEAEPGFTARDKEKEVTTRPRETVQLPITQRASTVRVTTAQAAVTSHPHGGMQPGLHETSAPTAPGQPDHQPPRVEGGGTSVIKEVVEDGTANQLPAGEGSGEQDFTFETSGENTAVAAVEPGLRNQPPVDEGATGASQSLLDRKEVLGVLAALIVGGVVGILFAVFLILLLVYRMKKKDEGSYDLGKKPIYKKAPTNEFYA
notes: extracellular domain;domain: transmembrane and cytoplasmic domains; Expressed in HaCat cells; also called Sdc4 displaying the Sdc1 ectodomain
B4: no binding [2].

B5: SSTNEGFR synthetic peptide with amino acids 99-108 mutated to alanine (peptide)
peptide: NHIPERAGSGSQAAAAAAAAAANEVIPKRISPVEESEDVSNKVSM
For B5, the “activity against EGF-stimulated cell migration, relative to SSTNEGFR” value [1] was 10 fold reduction.

B6: GST-S1CD, Sdc1 cytoplasmic domain fused to GST (other)
chain: {GST}-RMKKKDEGSYSLEEPKQANGGAYQKPTKQEEFYA
notes: The result sentences say only Sdc1; not shown: glutathione S-transferase (GST) fusion partner
B6: no binding [3].

B7: syndecan-1 (Sdc1), human, endogenous in human cell lines (receptor, UniProt P18827 23-310, looked up)
chain: QIVATNLPPEDQDGSGDDSDNFSGSGAGALQDITLSQQTPSTWKDTQLLTAIPTSPEPTGLEATAASTSTLPAGEGPKEGEAVVLPEVEPGLTAREQEATPRPRETTQLPTTHLASTTTATTAQEPATSHPHRDMQPGHHETSTPAGPSQADLHTPHTEDGGPSATERAAEDGASSQLPAAEGSGEQDFTFETSGENTAVVAVEPDRRNQSPVDQGATGASQGLLDRKEVLGGVIAGGLVGLIFAVCLVGFMLYRMKKKDEGSYSLEEPKQANGGAYQKPTKQEEFYA
notes: whole, on cells; Used as the comparison for Sdc4 in co-immunoprecipitation
B7: no binding [4].
